Residues, ends and D or L forms follow the SMILES beside them. No end group written: not given here.
Assays:
HLA-DQ8 [1] = target: HLA-DQ8 (Homo sapiens, UniProt P01909+P01920, A209T/A45G/C70Q/D89A/DUP78-78/E183D/E77G/F237L/G63E/H199R/I129T/K197E/L178F/L74F/L98V/Q57E/Q76R/S185I/S97I/T217I/T49S/V73L/Y58L); assay: MHC II/peptide competition binding assay, HLA-DQ8
Experimental: (§1) One skilled in the art would appreciate that the 15-mers used included shorter de-epitoped high molecular weight glutenin peptide sequences (mutated repeating antigenic units), as described throughout. For example, Table 2 provides a listing of 15-mers and the shorter mutated repeating antigenic units present therein. […] MHC II molecules were purified by affinity chromatography, and peptides were radiolabeled using the chloramine T method. After an incubation period, the bound and unbound radiolabeled species were separated, and their relative amounts were determined by either size-exclusion gel-filtration chromatography or monoclonal antibody capture of MHC. The percent of bound radioactivity was then determined.

HLA-DQ2.5 [2] = target: HLA-DQ2.5 (Homo sapiens, UniProt P01909+P01920, A45G/A70V/D89A/E106A/E77G/E98D/H199R/L107V/N214S/P84L/P87L/T103K/T109R/T172A/T60S/V78E/V99I/Y58L/Y62S/Y69I/Y79F); assay: MHC II/peptide competition binding assay, HLA-DQ2.5
Experimental: as §1

[3] = tested on: Gluten-reactive T-cell lines (TCLs) from celiac disease patients' biopsies; assay: T-cell activation assay (IFN-γ ELISA); assay type: cell-based, human; details: peptides 10 μM, 48 h; positive if IFNγ ≥2-fold vs control and significantly higher (one-sided t-test)
Experimental: 200 mg of protein were first incubated in 5% formic acid with 4 mg pepsin for 4 hours in 37° C. Then the sample was evaporated using speedVac. On the following day, the protein was incubated with 4 mg chymotrypsin in 20 mM ammonium-bicarbonate for 4 hours in 37° C., followed by speedVac evaporation. The concentration of the digest was then measured, and the digest was deamidated using transglutaminase, 2 U per 7 mg digest for 6 hours in 37° C. The samples were then cleaned using a C18 column, dried and resuspended in media at a concentration of 2 mg/ml. […]
TCLs from celiac disease patients' biopsies were assayed for responses to deamidated PCT-HMW proteins and HMW peptides by the detection of IFN-7 by enzyme-linked immunosorbent assay (ELISA), as previously described (Gianfrani, Carmen, et al. “Gliadin-specific type 1 regulatory T cells from the intestinal mucosa of treated celiac patients inhibit pathogenic T cells.” The journal of immunology 177.6 (2006): 4178-4186.). […] The reaction was stopped, and the plate was read on the ELISA plate reader at […]. The results were analyzed using Graphpad Prism and IFNγ levels were determined. […]

HLA-DQ7.5 = assay: MHC II competition binding assay (purified MHC II, radiolabeled probe peptide as competitor)
HLA-DQ2.5 [4] = assay: as above
HLA-DQ8 [5] = assay: as above
HLA-DQ2.2 = assay: as above

## C[C@@H](O)[C@H](NC(=O)[C@@H]1CCCN1C(=O)[C@H](Cc1ccc(O)cc1)NC(=O)[C@H](Cc1ccc(O)cc1)NC(=O)CNC(=O)[C@H](CCCCN)NC(=O)[C@H](CCC(N)=O)NC(=O)CNC(=O)[C@@H](N)CCC(N)=O)C(=O)N[C@@H](CO)C(=O)N1CCC[C@H]1C(=O)N[C@@H](Cc1c[nH]cn1)C(=O)N[C@@H](CCC(N)=O)C(=O)N[C@@H](CO)C(=O)NCC(=O)O [SEQ ID NO: 143] (H-QGQKGYYPTSPHQSG-OH; N-terminus assumed)
HLA-DQ8 [1]
  IC50: > 40 µM
HLA-DQ2.5 [2]
  IC50: 34.4 µM
[3]
  T-cell activation (IFN-γ levels by ELISA): abolishment of T-cell activation

B1: modified 15-mer peptide … (SEQ ID NO: 174) (peptide)
peptide: QGQEGHGPASPKQSG-OH
HLA-DQ7.5
  IC50: 16.4 µM

B2: P1b, deamidated HMW glutenin 15-mer peptide … (SEQ ID NO: 50) (peptide)
peptide: QGQEGYYPTSPEQSG-OH
HLA-DQ2.5 [4]
  IC50: 3.29 µM
HLA-DQ8 [5]
  IC50: 3.75 µM

B3: modified 15-mer peptide … (SEQ ID NO: 176) (peptide)
peptide: QGQEPYGPSSPEQSG-OH
HLA-DQ7.5
  IC50: 28.6 µM

B4: P1e, modified 15-mer peptide … (SEQ ID NO: 53) (peptide)
peptide: QGQPRYYPTSPRQSG-OH
HLA-DQ2.5 [4]
  IC50: 33.2 µM
HLA-DQ7.5
  IC50: 19.4 µM
HLA-DQ8 [5]
  IC50: 32.5 µM

B5: P1a, native HMW glutenin 15-mer peptide … (SEQ ID NO: 49) (peptide)
peptide: QGQQGYYPTSPQQSG-OH
HLA-DQ2.5 [4]
  IC50: 29.8 µM
HLA-DQ8 [5]
  IC50: 14.2 µM

B6: P1h, modified 15-mer peptide … (SEQ ID NO: 56) (peptide)
peptide: QGQEWHYPTSTEQSG-OH
HLA-DQ2.2
  IC50: 5.72 µM

From patent US20230416314A1, “MODIFIED HIGH MOLECULAR WEIGHT GLUTENIN SUBUNIT AND USES THEREOF” (Ukko Inc., priority 2020, published 2023)
